The values below come from publication PMC6356362.

The assay has as its target recombinant GP of EBOV (Mayinga strain), mucin and TM domains-deleted protein (GP[change] sequence w (Zaire ebolavirus (EBOV), Mayinga strain), Q05320. Nature of the assay: SPR. To be noted: remark: other sources report otherwise.

B1: recombinant human surfactant protein D (hSP-D) dodecamers, P35247 21-375 (natural protein)
chain: AEMKTYSHRTMPSACTLVMCSSVESGLPGRDGRDGREGPRGEKGDPGLPGAAGQAGMPGQAGPVGPKGDNGSVGEPGPKGDTGPSGPPGPPGVPGPAGREGPLGKQGNIGPQGKPGPKGEAGPKGEVGAPGMQGSAGARGLAGPKGERGVPGERGVPGNTGAAGSAGAMGPQGSPGARGPPGLKGDKGIPGDKGAKGESGLPDVASLRQQVEALQGQVQHLQAAFSQYKKVELFPNGQSVGEKIFKTAGFVKPFTEAQLLCTQAGGQLASPRSAAENAALQQLVVAKNEAAFLSMTDSKTEGKFTYPTGESLVYSNWAPGEPNDDGGSEDCVEIFTNGKWNDRACGEKRLVVCEF
For the molecule B1, the Kd – broadly, a measure of binding affinity in units of concentration – was determined as 0.33 nM; the koff (usually the rate constant with which the complex falls apart) is 0.00121 s⁻¹; the kon (commonly the second-order rate constant of association) came out at 3.65e+06 M⁻¹ s⁻¹.
